B1: coiled-coil segment of Emp47p, Emp47p^CC (254–374) (domain or fragment, yeast, UniProt P43555 282-402, looked up)
chain: GKEKLIEKTAFDADKDKITNYELYKKLDRVEGKILANDINALETKLNDVIKVQQELLSFMTTITKQLSSKPPANNEKGTSTDDAIAEDKENFKDFLSINQKLEKVLVEQEKYREATKRHGQ
notes: Emp47p, yeast putative cargo receptor, coiled-coil segment, residues 254-374 by the methods (the results print 271–274); in mixtures with Emp46p^CC it forms 1:3 and 2:2 heterotetramers; the results print (271–274); also called Emp47^CC; source: E. coli BL21-CodonPlus, purified (Chelating Sepharose, tag cleaved, gel filtration)
B2: coiled-coil segment of Emp46p, Emp46p^CC (252–355) (domain or fragment, yeast, UniProt Q12396 298-401, looked up)
chain: EESFREKMPFSDKEESITSNELFEKMNKLEGKIMANDIDPLLRKMNKIVENERELIQRLRPLLDLKKTAISDDSFQDFLSMNANLDRLIKEQEKIRQDAKLYGK
notes: Emp46p, yeast putative cargo receptor, coiled-coil segment, residues 252-355; Monomer-dimer equilibrium by SV-AUC and native MS; also called wild-type Emp46p^CC; source: E. coli BL21-CodonPlus, purified (Chelating Sepharose, tag cleaved, gel filtration)

Experiments:
[1] = target: E303A mutant of Emp46p^CC (yeast) (UniProt Q12396); assay: cross-linking; dimethyl suberimidate (DMS) 0.1 mg/mL, 60 or 120 min, room temperature, 100 mM carbonate/bicarbonate buffer pH 8.9; SDS-PAGE
[2] = target: coiled-coil segment of Emp47p, Emp47p^CC (254–374) (yeast) (UniProt P43555); assay: native MS; nanoflow electrospray under non-denaturing conditions, 200 mM ammonium acetate pH 7.4; single proteins 43 uM; mixtures of Emp47p^CC 33 uM with 17, 33 and 67 uM Emp46p^CC, 25 °C, 30 min
[3] = target: the molecule itself; assay: SEC; Superose 12 gel filtration; Emp47p^CC 70 uM alone or with Emp46p^CC or its E303A mutant; 10 mM phosphate buffer pH 7.4, 150 mM NaCl
[4] = target: the molecule itself; assay: native MS; mass spectra under non-denaturing conditions measured at pH 5.0; Emp47p^CC fixed, Emp46p^CC varied

Row | Molecule | stoichiometry N [1] | stoichiometry N (Emp46p^CC per Emp47p^CC (printed as 1:3)) [2] | stoichiometry N [3] | stoichiometry N [4]
1 | E303A mutant of Emp46p^CC (from UniProt Q12396 252-355) (domain or fragment) | 2 | 0.33 | – | –
2 | B1 | – | – | 4 | 3
3 | B2 | – | – | – | 2

Reference: article PMC4598028, “pH-Dependent Assembly and Segregation of the Coiled-Coil Segments of Yeast Putative Cargo Receptors Emp46p and Emp47p” (PLoS ONE, 2015)
